This note sets out measurements from publication PMC9881158, “The DEAD-box protein Dbp6 is an ATPase and RNA annealase interacting with the peptidyl transferase center (PTC) of the ribosome” (Nucleic Acids Research, 2023).

In data set [1] the target is T1, Dbp6 (Saccharomyces cerevisiae, UniProt P53734 1-629).
T1 sequence: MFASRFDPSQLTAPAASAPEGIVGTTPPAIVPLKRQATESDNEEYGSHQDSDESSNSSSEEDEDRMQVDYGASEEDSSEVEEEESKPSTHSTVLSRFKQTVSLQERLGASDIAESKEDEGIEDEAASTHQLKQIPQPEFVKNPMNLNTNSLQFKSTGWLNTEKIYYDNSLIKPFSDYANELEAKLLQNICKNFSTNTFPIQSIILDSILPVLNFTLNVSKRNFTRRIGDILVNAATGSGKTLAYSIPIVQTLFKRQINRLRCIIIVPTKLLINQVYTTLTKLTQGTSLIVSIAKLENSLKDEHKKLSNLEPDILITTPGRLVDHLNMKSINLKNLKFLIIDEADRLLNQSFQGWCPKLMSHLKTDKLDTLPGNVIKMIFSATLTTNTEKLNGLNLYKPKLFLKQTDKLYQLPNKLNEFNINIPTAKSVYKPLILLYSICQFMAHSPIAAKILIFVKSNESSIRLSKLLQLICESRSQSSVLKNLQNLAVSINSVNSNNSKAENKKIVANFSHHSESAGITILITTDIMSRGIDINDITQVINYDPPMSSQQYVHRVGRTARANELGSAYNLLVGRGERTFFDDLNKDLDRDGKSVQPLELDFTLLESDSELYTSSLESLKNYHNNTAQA
Kind of data set: EMSA; Dbp6 up to 1.2 uM; EMSA: 1 nM 32P-RNA, RB 1x (composition not in the material), RNasin, 15 min at 30 C, native PAGE in TBE; bridging: 0.8 uM Dbp6, RB 1x, 15 min at 30 C. The following applies: protein: recombinant; tags: N-terminal His6; label: 32P. Background: Mobility shift assays separate free from complexed probe on a gel.

Data set [2] concerns the target T2, Dbp6 M-II mutant (motif II, DEAD to DAAD), His6-tagged recombinant, P53734.
T2 chain: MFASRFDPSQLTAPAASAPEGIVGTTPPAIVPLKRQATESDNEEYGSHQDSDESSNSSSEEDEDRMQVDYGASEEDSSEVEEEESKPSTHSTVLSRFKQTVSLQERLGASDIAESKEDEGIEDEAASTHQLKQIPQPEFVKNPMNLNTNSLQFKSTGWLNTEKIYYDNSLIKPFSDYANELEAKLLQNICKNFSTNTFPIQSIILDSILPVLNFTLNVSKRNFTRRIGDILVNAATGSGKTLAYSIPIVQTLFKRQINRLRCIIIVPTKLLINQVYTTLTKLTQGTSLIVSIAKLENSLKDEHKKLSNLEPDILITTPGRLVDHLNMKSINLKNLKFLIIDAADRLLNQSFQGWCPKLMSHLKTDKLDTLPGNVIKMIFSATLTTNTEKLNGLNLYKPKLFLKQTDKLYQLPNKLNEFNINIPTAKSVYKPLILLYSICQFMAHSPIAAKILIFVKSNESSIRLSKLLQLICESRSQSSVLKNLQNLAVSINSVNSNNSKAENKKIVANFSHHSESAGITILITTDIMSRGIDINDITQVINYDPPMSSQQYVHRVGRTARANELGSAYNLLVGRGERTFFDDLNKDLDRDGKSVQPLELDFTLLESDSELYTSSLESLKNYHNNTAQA
Kind of data set: UV cross-linking. To be noted: chain shown with the change, no RNA included, parent: est. 0.51, read off a plot.

Data set [3] concerns the molecule itself. Kind of data set: SEC; Superdex 200 gel filtration after HisTrap; GF-ATPase buffer (20 mM Tris–HCl pH 8.0, 100 mM KCl, 10% glycerol, 1 mM DTT, 0.5 mM PMSF); column calibrated with molecular weight standards. A general note: SEC sorts molecules by how far they enter the pores of the column.
Data set [4] deals with the molecule itself. Kind of data set: cross-linking; purified recombinant Dbp6 (1.5 or 0.8 μM) in RB 1× buffer, 15 min at 20°C, UV 312 nm for 6 min on ice; SDS-PAGE, western blot or silver staining; with or without ATP (1 or 5 μM with labelled ATP; 5 mM) and RNA oligonucleotide. (Immunoblotting shows a protein as a band on a membrane.)
Data set [5] deals with the molecule itself. Description: co-IP; immunoprecipitation of Dbp6-ZZ with IgG-sepharose from extracts of a yeast strain expressing HA-Dbp6 and ZZ-tagged Dbp6, in the presence of RNase; western blot.
Data set [6] deals with T3, Dbp6 M-I mutant (motif I, GTGKT), His6-tagged recombinant, P53734.
T3 chain: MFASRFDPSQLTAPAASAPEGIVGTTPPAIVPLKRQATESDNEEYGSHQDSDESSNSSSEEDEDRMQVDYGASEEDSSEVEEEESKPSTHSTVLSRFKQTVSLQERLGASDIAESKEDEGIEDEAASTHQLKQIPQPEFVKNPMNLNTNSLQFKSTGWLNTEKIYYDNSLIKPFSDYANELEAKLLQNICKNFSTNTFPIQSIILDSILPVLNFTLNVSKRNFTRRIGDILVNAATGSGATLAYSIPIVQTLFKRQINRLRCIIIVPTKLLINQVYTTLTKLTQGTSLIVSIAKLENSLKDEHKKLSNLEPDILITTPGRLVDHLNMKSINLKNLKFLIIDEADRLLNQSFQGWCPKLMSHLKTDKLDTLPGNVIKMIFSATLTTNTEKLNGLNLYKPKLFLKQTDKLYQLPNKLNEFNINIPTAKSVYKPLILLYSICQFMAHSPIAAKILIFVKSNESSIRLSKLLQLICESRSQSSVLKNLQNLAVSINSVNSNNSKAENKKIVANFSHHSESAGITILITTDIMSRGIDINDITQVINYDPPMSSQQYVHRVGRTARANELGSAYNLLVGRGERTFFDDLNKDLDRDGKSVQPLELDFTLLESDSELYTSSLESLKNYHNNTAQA
Description: UV cross-linking. The following applies: chain shown with the change, no RNA included, parent: est. 0.51, read off a plot.

Data set [7] has as its target T1, Dbp6. Description: EMSA; no nucleotide; EMSA: 1 nM 32P-RNA, RB 1x (composition not in the material), RNasin, 15 min at 30 C, native PAGE in TBE; bridging: 0.8 uM Dbp6, RB 1x, 15 min at 30 C. The following applies: protein: recombinant; tags: N-terminal His6; label: 32P.

In the case of GGGAGACCGGAAUUCAUCAUU (ssRNA) [ss21-mer], the binding result in data set [1] is recorded as “no binding”.

B1: recombinant His6-Dbp6, P53734 M-II: E to A in motif II (DEAD to DAAD) (protein)
chain: MFASRFDPSQLTAPAASAPEGIVGTTPPAIVPLKRQATESDNEEYGSHQDSDESSNSSSEEDEDRMQVDYGASEEDSSEVEEEESKPSTHSTVLSRFKQTVSLQERLGASDIAESKEDEGIEDEAASTHQLKQIPQPEFVKNPMNLNTNSLQFKSTGWLNTEKIYYDNSLIKPFSDYANELEAKLLQNICKNFSTNTFPIQSIILDSILPVLNFTLNVSKRNFTRRIGDILVNAATGSGKTLAYSIPIVQTLFKRQINRLRCIIIVPTKLLINQVYTTLTKLTQGTSLIVSIAKLENSLKDEHKKLSNLEPDILITTPGRLVDHLNMKSINLKNLKFLIIDAADRLLNQSFQGWCPKLMSHLKTDKLDTLPGNVIKMIFSATLTTNTEKLNGLNLYKPKLFLKQTDKLYQLPNKLNEFNINIPTAKSVYKPLILLYSICQFMAHSPIAAKILIFVKSNESSIRLSKLLQLICESRSQSSVLKNLQNLAVSINSVNSNNSKAENKKIVANFSHHSESAGITILITTDIMSRGIDINDITQVINYDPPMSSQQYVHRVGRTARANELGSAYNLLVGRGERTFFDDLNKDLDRDGKSVQPLELDFTLLESDSELYTSSLESLKNYHNNTAQA
Turning to B1, in data set [2], the other: quantity of oligomers with ATP, relative to without ATP (set at 1) was 0.96.

B2: recombinant His6-Dbp6 (enzyme, S. cerevisiae, UniProt P53734 1-629, looked up)
chain: MFASRFDPSQLTAPAASAPEGIVGTTPPAIVPLKRQATESDNEEYGSHQDSDESSNSSSEEDEDRMQVDYGASEEDSSEVEEEESKPSTHSTVLSRFKQTVSLQERLGASDIAESKEDEGIEDEAASTHQLKQIPQPEFVKNPMNLNTNSLQFKSTGWLNTEKIYYDNSLIKPFSDYANELEAKLLQNICKNFSTNTFPIQSIILDSILPVLNFTLNVSKRNFTRRIGDILVNAATGSGKTLAYSIPIVQTLFKRQINRLRCIIIVPTKLLINQVYTTLTKLTQGTSLIVSIAKLENSLKDEHKKLSNLEPDILITTPGRLVDHLNMKSINLKNLKFLIIDEADRLLNQSFQGWCPKLMSHLKTDKLDTLPGNVIKMIFSATLTTNTEKLNGLNLYKPKLFLKQTDKLYQLPNKLNEFNINIPTAKSVYKPLILLYSICQFMAHSPIAAKILIFVKSNESSIRLSKLLQLICESRSQSSVLKNLQNLAVSINSVNSNNSKAENKKIVANFSHHSESAGITILITTDIMSRGIDINDITQVINYDPPMSSQQYVHRVGRTARANELGSAYNLLVGRGERTFFDDLNKDLDRDGKSVQPLELDFTLLESDSELYTSSLESLKNYHNNTAQA
notes: DEAD-box protein Dbp6 of yeast (S. cerevisiae), DBP6 ORF cloned downstream of a His tag in modified pET-15b; His6-Dbp6 ca. 73 kDa; SEC fractions also hold some truncated fragments of Dbp6; fraction F17 was used for the in vitro assays; also called WT Dbp6; wild-type Dbp6; source: E. coli Rosetta λDE3, purified (HisTrap FF, Superdex 200); not shown: His6, N-terminal, kept
For B2, the stoichiometry N (in general, a count of units in the complex or per binding partner) in data set [3] came to 2. For the same molecule, the “fold reduction of oligomerization with 5 mM ATP against no ATP” value in data set [4] is about 2 fold.

B3: Dbp6 expressed in yeast as HA-Dbp6 and as Dbp6-ZZ (enzyme, S. cerevisiae, UniProt P53734 1-629, looked up)
chain: MFASRFDPSQLTAPAASAPEGIVGTTPPAIVPLKRQATESDNEEYGSHQDSDESSNSSSEEDEDRMQVDYGASEEDSSEVEEEESKPSTHSTVLSRFKQTVSLQERLGASDIAESKEDEGIEDEAASTHQLKQIPQPEFVKNPMNLNTNSLQFKSTGWLNTEKIYYDNSLIKPFSDYANELEAKLLQNICKNFSTNTFPIQSIILDSILPVLNFTLNVSKRNFTRRIGDILVNAATGSGKTLAYSIPIVQTLFKRQINRLRCIIIVPTKLLINQVYTTLTKLTQGTSLIVSIAKLENSLKDEHKKLSNLEPDILITTPGRLVDHLNMKSINLKNLKFLIIDEADRLLNQSFQGWCPKLMSHLKTDKLDTLPGNVIKMIFSATLTTNTEKLNGLNLYKPKLFLKQTDKLYQLPNKLNEFNINIPTAKSVYKPLILLYSICQFMAHSPIAAKILIFVKSNESSIRLSKLLQLICESRSQSSVLKNLQNLAVSINSVNSNNSKAENKKIVANFSHHSESAGITILITTDIMSRGIDINDITQVINYDPPMSSQQYVHRVGRTARANELGSAYNLLVGRGERTFFDDLNKDLDRDGKSVQPLELDFTLLESDSELYTSSLESLKNYHNNTAQA
notes: DEAD-box protein Dbp6 of yeast (S. cerevisiae); HA-tagged ORF under the GAL1-10 promoter and wild-type DBP6 cassette in pHA113 between a GAR1 promoter and a ZZ tag; also called ZZ-tagged Dbp6; GAL::HA-DBP6; source: yeast strain expressing HA-Dbp6 as well as ZZ-tagged Dbp6, in extract
Consider B3, for which the “fold enrichment over background” value in data set [5] was about 2 fold.

B4: recombinant His6-Dbp6, P53734 M-I: K to A in motif I (GTGKT) (protein)
chain: MFASRFDPSQLTAPAASAPEGIVGTTPPAIVPLKRQATESDNEEYGSHQDSDESSNSSSEEDEDRMQVDYGASEEDSSEVEEEESKPSTHSTVLSRFKQTVSLQERLGASDIAESKEDEGIEDEAASTHQLKQIPQPEFVKNPMNLNTNSLQFKSTGWLNTEKIYYDNSLIKPFSDYANELEAKLLQNICKNFSTNTFPIQSIILDSILPVLNFTLNVSKRNFTRRIGDILVNAATGSGATLAYSIPIVQTLFKRQINRLRCIIIVPTKLLINQVYTTLTKLTQGTSLIVSIAKLENSLKDEHKKLSNLEPDILITTPGRLVDHLNMKSINLKNLKFLIIDEADRLLNQSFQGWCPKLMSHLKTDKLDTLPGNVIKMIFSATLTTNTEKLNGLNLYKPKLFLKQTDKLYQLPNKLNEFNINIPTAKSVYKPLILLYSICQFMAHSPIAAKILIFVKSNESSIRLSKLLQLICESRSQSSVLKNLQNLAVSINSVNSNNSKAENKKIVANFSHHSESAGITILITTDIMSRGIDINDITQVINYDPPMSSQQYVHRVGRTARANELGSAYNLLVGRGERTFFDDLNKDLDRDGKSVQPLELDFTLLESDSELYTSSLESLKNYHNNTAQA
As to B4, the other: quantity of oligomers with ATP, relative to without ATP (set at 1) in data set [6] is 0.97.

With CAGAACCGCUACACUGAAAUGAUCAAUUCCGGUCUCCC (ssRNA) [ss38-mer], in data set [7], the binding result is listed as “binds”.

B5: Dbp6 ΔN mutant (lacking the N-terminal D/E-rich sequence, residues 24–128), His6-tagged recombinant (enzyme, S. cerevisiae, UniProt P53734 1-629, looked up)
chain: MFASRFDPSQLTAPAASAPEGIVHQLKQIPQPEFVKNPMNLNTNSLQFKSTGWLNTEKIYYDNSLIKPFSDYANELEAKLLQNICKNFSTNTFPIQSIILDSILPVLNFTLNVSKRNFTRRIGDILVNAATGSGKTLAYSIPIVQTLFKRQINRLRCIIIVPTKLLINQVYTTLTKLTQGTSLIVSIAKLENSLKDEHKKLSNLEPDILITTPGRLVDHLNMKSINLKNLKFLIIDEADRLLNQSFQGWCPKLMSHLKTDKLDTLPGNVIKMIFSATLTTNTEKLNGLNLYKPKLFLKQTDKLYQLPNKLNEFNINIPTAKSVYKPLILLYSICQFMAHSPIAAKILIFVKSNESSIRLSKLLQLICESRSQSSVLKNLQNLAVSINSVNSNNSKAENKKIVANFSHHSESAGITILITTDIMSRGIDINDITQVINYDPPMSSQQYVHRVGRTARANELGSAYNLLVGRGERTFFDDLNKDLDRDGKSVQPLELDFTLLESDSELYTSSLESLKNYHNNTAQA
notes: made from pET-Dbp6; also called pET-ΔN; source: E. coli Rosetta λDE3, purified (HisTrap FF, Superdex 200)
Turning to B5, in data set [3], the binding result is “binds”.
